In assay [1] the target is KpSSBnPaSSBc (K. pneumoniae subsp. pneumoniae MGH 78578 | P. aeruginosa PAO1) (UniProt A6TGW7). As to the kind of experiment: SEC; purified protein (2 mg/mL) on Superdex 200 HR 10/30 in Buffer D (20 mM potassium phosphate, 1 mM EDTA, 100 mM NaCl, pH 7.0), 0.5 mL/min; calibrated with proteins of known molecular weight; oligomeric state from the native mass against the monomer mass.

The target in assay [2] is KpSSBnStSSBc (K. pneumoniae subsp. pneumoniae MGH 78578 | S. enterica serovar Typhimurium LT2) (UniProt A6TGW7). Described as above.

In turn, “KpSSBnPaSSBc (from UniProt A6TGW7 1-91; P40947 91-165)” registered a stoichiometry N in assay [1] of 4.

The substance “KpSSBnStSSBc (from UniProt A6TGW7 1-91; P0A2F6 92-176)” returned a stoichiometry N in assay [2] of 4.

The values above are taken from PMC4137731.
